Results on 2 substances are retold here after US20170342140A1.

Experiment [1] has as its target glycopeptide B (SEQ ID NO: 21), BSA-PEG4 conjugate. The experiment is described as follows: antigen solid-phase ELISA, AAL lectin as positive control. (In general: An ELISA detects its analyte on a solid surface through an enzyme-linked reagent.)
The target in experiment [2] is non-fucosylated glycopeptide B (SEQ ID NO: 22), BSA-PEG4 conjugate. Kind of experiment: antigen solid-phase ELISA, WGA lectin as positive control.

AAL lectin (from UniProt P18891 2-313) yielded an OD450 in experiment [1] of 0.335 OD450.

In turn, WGA lectin displayed an OD450 in experiment [2] of 3 OD450.
